Reference: publication PMC5419085

Molecular target: full-length human LRP1 (low-density lipoprotein receptor-related protein 1) (human)
Assay: ELISA; full-length human LRP1 (5 nM) coated on microtiter plates; biotinylated ADAMTS-5-2 (6 nM) with or without antibodies or RAP (each 100 nM); detected by AP-conjugated streptavidin; TNC buffer, 2 h, room temperature; bound amount as % of that without antibodies or RAP

## receptor-associated protein (RAP) (from UniProt P30533 35-357) (natural protein)
  percent inhibition of ADAMTS-5 binding to LRP1 at 100 nM: 75%
